Legend:
C3b = C3b (UniProt P01024); assay: cell-based or functional assay
C4b = C4b (UniProt P0C0L4); assay: cell-based or functional assay
Chain of C4b (P0C0L4 20-1744): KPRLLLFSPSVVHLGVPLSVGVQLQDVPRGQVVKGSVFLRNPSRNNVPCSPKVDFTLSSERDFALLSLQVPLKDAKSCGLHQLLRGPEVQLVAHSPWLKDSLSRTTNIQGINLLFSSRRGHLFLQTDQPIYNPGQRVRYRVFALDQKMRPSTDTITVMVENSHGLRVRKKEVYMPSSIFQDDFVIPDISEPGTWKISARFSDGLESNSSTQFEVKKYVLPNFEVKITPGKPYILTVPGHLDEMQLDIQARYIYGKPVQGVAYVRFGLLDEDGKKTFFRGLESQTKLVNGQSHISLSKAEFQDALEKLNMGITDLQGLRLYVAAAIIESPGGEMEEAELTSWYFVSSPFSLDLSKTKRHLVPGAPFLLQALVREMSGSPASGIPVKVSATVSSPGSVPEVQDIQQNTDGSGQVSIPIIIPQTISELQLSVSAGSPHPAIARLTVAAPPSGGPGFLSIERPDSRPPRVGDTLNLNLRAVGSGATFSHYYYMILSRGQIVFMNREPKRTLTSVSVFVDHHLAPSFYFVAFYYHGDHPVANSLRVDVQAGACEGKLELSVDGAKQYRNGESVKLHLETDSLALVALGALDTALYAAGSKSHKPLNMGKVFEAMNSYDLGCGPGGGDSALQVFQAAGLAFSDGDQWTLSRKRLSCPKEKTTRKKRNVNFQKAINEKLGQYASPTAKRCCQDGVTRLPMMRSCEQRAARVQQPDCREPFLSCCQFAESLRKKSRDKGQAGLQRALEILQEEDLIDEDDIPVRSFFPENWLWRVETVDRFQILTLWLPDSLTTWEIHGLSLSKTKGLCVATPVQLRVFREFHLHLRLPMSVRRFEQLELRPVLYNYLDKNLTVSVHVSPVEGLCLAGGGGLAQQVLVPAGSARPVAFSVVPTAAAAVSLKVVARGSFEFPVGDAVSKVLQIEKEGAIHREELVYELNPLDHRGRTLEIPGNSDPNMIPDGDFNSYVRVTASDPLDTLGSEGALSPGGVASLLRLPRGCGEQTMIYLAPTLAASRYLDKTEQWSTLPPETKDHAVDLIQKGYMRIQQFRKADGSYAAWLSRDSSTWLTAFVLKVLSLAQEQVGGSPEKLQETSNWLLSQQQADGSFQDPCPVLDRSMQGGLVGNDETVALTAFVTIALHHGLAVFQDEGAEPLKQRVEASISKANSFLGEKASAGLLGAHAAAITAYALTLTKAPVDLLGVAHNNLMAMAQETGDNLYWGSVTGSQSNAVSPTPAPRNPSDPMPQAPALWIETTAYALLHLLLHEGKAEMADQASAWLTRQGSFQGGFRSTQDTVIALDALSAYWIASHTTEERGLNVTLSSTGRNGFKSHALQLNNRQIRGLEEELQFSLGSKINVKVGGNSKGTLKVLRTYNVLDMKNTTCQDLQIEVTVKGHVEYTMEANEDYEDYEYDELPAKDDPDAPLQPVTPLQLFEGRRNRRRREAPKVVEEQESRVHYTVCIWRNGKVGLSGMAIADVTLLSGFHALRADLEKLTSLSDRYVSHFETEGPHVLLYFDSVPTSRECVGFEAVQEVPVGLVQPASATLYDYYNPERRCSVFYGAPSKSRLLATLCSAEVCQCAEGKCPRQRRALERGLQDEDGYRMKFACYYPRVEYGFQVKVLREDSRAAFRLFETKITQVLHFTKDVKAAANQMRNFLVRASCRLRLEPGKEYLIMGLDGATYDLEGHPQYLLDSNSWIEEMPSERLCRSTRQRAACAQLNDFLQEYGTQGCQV

Chain of C3b (P01024 749-1663 limits assumed, chain 1 of 2): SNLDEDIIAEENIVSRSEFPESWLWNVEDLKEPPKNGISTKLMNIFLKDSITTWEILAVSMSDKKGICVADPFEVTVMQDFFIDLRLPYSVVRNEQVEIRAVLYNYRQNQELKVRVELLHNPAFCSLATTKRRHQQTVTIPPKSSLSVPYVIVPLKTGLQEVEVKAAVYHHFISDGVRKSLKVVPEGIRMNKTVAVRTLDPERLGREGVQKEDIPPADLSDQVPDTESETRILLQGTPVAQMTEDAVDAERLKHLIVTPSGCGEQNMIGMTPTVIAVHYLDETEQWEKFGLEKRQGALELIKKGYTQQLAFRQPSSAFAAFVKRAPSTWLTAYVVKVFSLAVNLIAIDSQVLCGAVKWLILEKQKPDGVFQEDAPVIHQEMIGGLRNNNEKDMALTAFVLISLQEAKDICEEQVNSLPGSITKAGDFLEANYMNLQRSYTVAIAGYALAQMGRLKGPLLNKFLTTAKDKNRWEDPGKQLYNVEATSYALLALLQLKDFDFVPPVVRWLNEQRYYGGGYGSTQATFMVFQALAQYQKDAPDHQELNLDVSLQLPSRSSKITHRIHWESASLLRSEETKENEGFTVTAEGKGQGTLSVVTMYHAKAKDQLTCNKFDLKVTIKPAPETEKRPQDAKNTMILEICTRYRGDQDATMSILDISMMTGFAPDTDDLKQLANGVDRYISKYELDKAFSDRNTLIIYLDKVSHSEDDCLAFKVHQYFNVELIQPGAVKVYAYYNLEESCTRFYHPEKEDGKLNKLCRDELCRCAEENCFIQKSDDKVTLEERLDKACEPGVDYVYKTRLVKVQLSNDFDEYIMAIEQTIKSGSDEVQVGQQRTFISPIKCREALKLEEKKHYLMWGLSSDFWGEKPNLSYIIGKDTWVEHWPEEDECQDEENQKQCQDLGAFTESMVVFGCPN
Chain of C3b (P01024 23-667 limits assumed, chain 2 of 2): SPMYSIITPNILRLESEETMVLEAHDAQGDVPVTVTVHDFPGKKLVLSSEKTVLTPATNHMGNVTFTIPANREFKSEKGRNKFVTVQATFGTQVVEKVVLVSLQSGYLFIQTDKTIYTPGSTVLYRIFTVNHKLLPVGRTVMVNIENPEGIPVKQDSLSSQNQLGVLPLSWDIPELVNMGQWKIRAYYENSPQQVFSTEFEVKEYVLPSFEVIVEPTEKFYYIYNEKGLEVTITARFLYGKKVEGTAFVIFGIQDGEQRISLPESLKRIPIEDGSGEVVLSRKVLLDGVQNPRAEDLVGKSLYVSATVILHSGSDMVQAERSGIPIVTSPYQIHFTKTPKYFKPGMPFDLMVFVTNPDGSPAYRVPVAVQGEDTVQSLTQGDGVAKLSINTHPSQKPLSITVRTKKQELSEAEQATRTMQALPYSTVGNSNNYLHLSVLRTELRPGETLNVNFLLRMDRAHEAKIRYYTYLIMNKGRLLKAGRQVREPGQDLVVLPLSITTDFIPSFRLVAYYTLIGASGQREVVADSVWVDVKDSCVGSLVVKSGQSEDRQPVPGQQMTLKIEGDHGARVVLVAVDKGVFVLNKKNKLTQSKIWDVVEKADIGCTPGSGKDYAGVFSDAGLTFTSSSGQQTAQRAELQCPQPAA

In the case of “histidine-tagged Smallpox Inhibitor of Complement Enzymes (SPICEhis) (from UniProt P68638 20-263)”, the efficiency as cofactor in the degradation of C3b, against VCPhis (C3b) is reported as 100 fold and the speed as cofactor in the degradation of C4b, against VCPhis (C4b) is reported as 6 fold.

— patent US20060115897A1
